In assay [1] the target is Partially purified CD36 (CD36 fraction) from human platelets, immobilized (human) (UniProt P16671). As to the kind of experiment: cytoadherence assay, IEs on immobilized CD36, mean and SD of triplicates.
Assay [2] deals with thrombospondin (TSP), immobilized (UniProt P07996). Kind of assay: cytoadherence assay, IEs on immobilized TSP, mean and SD of triplicates.
thrombospondin (TSP), immobilized, sequence (P07996 19-1170 limits assumed): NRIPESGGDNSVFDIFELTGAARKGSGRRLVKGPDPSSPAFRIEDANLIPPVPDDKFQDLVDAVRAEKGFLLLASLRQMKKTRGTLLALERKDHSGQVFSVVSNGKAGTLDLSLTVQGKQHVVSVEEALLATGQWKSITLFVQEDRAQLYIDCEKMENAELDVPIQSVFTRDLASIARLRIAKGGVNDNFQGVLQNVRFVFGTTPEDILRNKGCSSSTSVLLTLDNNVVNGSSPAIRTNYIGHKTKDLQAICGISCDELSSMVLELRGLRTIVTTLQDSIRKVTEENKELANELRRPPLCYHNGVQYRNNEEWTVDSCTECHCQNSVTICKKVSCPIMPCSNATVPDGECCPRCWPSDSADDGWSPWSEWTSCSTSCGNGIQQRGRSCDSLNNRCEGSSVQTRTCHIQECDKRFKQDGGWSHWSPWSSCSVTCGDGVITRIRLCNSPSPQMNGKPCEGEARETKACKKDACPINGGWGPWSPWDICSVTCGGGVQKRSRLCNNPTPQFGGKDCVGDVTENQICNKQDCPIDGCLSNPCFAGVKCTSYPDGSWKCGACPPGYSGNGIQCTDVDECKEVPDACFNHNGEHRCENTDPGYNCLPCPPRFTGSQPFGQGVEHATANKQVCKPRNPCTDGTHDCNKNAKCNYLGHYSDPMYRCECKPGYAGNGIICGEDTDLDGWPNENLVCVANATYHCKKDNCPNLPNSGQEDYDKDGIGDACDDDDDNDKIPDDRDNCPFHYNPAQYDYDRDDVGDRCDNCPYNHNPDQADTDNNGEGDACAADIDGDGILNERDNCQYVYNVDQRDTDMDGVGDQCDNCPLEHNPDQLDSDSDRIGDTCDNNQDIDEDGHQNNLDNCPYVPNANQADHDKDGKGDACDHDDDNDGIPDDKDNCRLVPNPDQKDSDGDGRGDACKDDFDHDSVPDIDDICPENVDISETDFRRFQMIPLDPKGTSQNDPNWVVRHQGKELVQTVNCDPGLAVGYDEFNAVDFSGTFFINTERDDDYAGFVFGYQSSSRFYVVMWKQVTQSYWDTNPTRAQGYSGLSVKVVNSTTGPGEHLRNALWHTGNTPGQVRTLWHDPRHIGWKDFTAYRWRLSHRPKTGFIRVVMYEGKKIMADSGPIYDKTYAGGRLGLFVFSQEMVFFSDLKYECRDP

Partially purified CD36 (CD36 fraction) from human platelets, immobilized (human), sequence (P16671 2-472 limits assumed, form in doubt): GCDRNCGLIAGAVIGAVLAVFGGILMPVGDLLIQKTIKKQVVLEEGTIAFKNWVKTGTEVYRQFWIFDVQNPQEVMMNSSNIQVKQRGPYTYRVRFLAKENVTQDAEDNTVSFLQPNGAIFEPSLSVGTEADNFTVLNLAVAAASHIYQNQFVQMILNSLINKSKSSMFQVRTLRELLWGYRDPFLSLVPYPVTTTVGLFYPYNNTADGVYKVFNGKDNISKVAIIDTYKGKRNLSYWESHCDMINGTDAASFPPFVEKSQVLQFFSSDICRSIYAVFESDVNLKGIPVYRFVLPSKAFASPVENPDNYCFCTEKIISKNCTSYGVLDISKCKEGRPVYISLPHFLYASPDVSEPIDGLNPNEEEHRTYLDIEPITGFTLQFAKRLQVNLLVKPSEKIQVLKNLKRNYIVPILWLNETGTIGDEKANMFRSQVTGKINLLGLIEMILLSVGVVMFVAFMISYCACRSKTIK

As for “Chymotrypsin cleaved AE1 on infected erythrocytes (from UniProt P02730 1-911)”, the percentage of bound IEs/mm^2 as compared to untreated cells in assay [1] worked out at 10.2%; in assay [2], 81%.

Source of the values: patent US20050059588A1, “Peptides which generate antibodies resulting in lysis of pathologically adherent erythrocytes” (REGENTS OF THE UNIVERSITY OF CALIFORNIA, priority 2003, published 2005).
